Source: article PMC3844076 (Nature, 2013)

Biological target: the molecule itself
Test: SEC

B1: EncM (as used for size exclusion chromatography) (enzyme, Streptomyces maritimus, UniProt Q9KHK2 1-464, looked up)
chain: MQFPQLDPATLAAFSAAFRGELIWPSDADYDEARRIWNGTIDRRPALIARCTSTPDVVAAVSFARKSGLLVAVRGGGHSMAGHSVCDGGIVIDLSLMNSIKVSRRLRRARAQGGCLLGAFDTATQAHMLATPAGVVSHTGLGGLVLGGGFGWLSRKYGLSIDNLTSVEIVTADGGVLTASDTENPDLFWAVRGGGGNFGVVTAFEFDLHRVGPVRFASTYYSLDEGPQVIRAWRDHMATAPDELTWALYLRLAPPLPELPADMHGKPVICAMSCWIGDPHEGERQLESILHAGKPHGLTKATLPYRALQAYSFPGAVVPDRIYTKSGYLNELSDEATDTVLEHAADIASPFTQLELLYLGGAVARVPDDATAYPNRQSPFVTNLAAAWMDPTEDARHTAWAREGYRALAGHLSGGYVNFMNPGEADRTREAYGAAKFERLQGVKAKYDPTNLFRLNQNIPPSSP
modifications: FAD covalently linked to His78 via the C8-methyl of the isoalloxazine ring
  stoichiometry N: 2
